Data on two substances can be found in patent publication EP1645881A1.

Assay [1] deals with monomeric Red Fluorescent Protein 1 (mRFP1). Put plainly: dual-colour FCCS in living HeLa cells, proteins expressed separately from pIRES-EGFP-mRFP1 (negative control, 0% interaction).
The target of assay [2] is JunΔdimΔDNA-mRFP1 (human) (UniProt P05412). Put plainly: dual-colour FCCS in living HeLa cells; references: 13% for no interaction, 45% for 100% interaction.
Sequence of UniProt P05412 (P05412 other isoform, or with tags, fused parts or gaps mutant): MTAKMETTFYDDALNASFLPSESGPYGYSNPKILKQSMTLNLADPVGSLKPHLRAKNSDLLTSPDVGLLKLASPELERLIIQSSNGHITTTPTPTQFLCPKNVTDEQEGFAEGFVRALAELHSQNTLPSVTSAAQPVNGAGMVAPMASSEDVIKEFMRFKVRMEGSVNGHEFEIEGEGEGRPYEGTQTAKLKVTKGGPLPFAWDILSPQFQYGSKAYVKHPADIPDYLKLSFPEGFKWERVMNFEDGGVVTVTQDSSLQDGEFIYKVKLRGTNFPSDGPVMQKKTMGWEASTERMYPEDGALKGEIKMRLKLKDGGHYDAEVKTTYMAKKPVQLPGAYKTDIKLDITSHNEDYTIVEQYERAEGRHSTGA

For the substance “Enhanced Green Fluorescent Protein (EGFP)”, the cross-correlation amplitude (percent of the autocorrelation signal) in assay [1] worked out at 13%. “FosΔdimΔDNA-EGFP (from UniProt P01100 1-138)” gave a cross-correlation amplitude in assay [2] of 18%.
